Assay [1] concerns the target T1, hu(NA1)BA-avi-His, biotinylated (human, biotin on the avi-tag).
T1 construct: CEACAM5 domains N and A1 followed by two CEACAM1 Ig domains, avi-tag and his-tag; also called CEA antigen; chimera of CEACAM5 domains N and A1 on CEACAM1
T1 chain: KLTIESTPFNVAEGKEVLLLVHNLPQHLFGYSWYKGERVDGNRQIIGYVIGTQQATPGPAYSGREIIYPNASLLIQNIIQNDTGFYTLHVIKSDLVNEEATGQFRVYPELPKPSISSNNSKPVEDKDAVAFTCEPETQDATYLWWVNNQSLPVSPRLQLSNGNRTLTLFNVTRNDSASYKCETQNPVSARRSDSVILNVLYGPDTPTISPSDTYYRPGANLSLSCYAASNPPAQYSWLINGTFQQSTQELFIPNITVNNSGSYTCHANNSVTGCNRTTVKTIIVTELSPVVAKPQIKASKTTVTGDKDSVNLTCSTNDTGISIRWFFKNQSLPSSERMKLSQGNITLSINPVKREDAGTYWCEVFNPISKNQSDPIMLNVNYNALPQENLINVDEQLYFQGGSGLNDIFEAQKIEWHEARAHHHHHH
In words: SPR, purified aVH.
Procedure: CEACAM1-avi-his was again used as a negative control Immobilization of recombinant antigens (ligand): Antigen was diluted with PBST (10 mM phosphate, 150 mM sodium chloride pH 7.4, 0.005% Tween 20) to 10 μg/ml, then injected at 30 μl/minute at varying contact times, to achieve immobilization levels of 200, 400 or 800 response units (RU) in vertical orientation. […] Buffer (PBST) was injected along the sixth channel to provide an “in-line” blank for referencing. Association rate constants (kₒₙ) and dissociation rate constants (koff) were calculated using a simple one-to-one Langmuir binding model in ProteOn Manager v3.1 software by simultaneously fitting the association and dissociation sensorgrams. The equilibrium dissociation constant (KD) was calculated as the ratio koff/kₒₙ.

Assay [2] deals with T1, hu(NA1)BA-avi-His, biotinylated. The assay can be described thus: SPR, bacterial supernatant.
Procedure: The off-rate of selected aVH clones was measured using a ProteOn XPR36 instrument (Biorad) at 25° C. with biotinylated hu(NA1)BA-avi-His immobilized on NLC chips by neutravidin capture. CEACAM1-avi-his was used as a negative control. Immobilization of recombinant antigens (ligand): Antigens were diluted with PBST (10 mM phosphate, 150 mM sodium chloride pH 7.4, 0.005% Tween 20) to 10 μg/ml, then injected at 30 μl/minute at varying contact times, to achieve immobilization levels of 400, 800 or 1600 response units (RU) in vertical orientation. Injection of analytes: Injection direction was changed to horizontal orientation and 5 individual aVH-containing supernatants that were diluted 1:3 with PBST were injected simultaneously at 60 μl/min along separate channels 1-5, with association times between 120 and 180s, and dissociation times of 800s. Diluted bacterial supernatant without aVH was injected along the sixth channel to provide an “in-line” blank for referencing. Dissociation rate constants (koff) were calculated using the “koff-rate” calculation in ProteOn Manager v3.1 software.
Assay [3] concerns the target T2, full-length human CEA with N-terminal SNAP tag on transfected HEK293 cells (human, UniProt P06731 35-685, SNAP tag labelled with terbium).
T2 construct: whole, on cells; also called hu CEA-SNAP; CEACAM5
T2 sequence (looked up): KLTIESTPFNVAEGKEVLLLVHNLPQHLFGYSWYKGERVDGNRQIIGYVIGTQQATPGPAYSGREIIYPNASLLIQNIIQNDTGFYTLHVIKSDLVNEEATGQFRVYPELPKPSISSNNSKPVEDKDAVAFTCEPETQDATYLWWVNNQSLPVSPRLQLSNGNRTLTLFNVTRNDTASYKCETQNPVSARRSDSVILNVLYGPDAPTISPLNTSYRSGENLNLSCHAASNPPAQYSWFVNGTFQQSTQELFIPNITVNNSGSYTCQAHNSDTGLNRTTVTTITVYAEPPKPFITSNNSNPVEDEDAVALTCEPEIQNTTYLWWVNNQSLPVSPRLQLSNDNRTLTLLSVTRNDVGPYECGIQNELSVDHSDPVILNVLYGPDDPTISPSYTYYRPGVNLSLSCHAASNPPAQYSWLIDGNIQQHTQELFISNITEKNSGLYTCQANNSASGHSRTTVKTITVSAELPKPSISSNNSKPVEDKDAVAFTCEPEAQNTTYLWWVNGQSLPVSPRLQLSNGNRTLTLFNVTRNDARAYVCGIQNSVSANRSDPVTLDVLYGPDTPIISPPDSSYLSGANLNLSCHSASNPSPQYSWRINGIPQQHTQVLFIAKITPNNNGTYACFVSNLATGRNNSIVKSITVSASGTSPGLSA
The assay can be described thus: FRET (TagLite) on hu CEA-SNAP cells.
Procedure: Binding of a selected set of purified aVH binders to their epitope on CEA-expressing cells was determined by Fluorescence Resonance Energy Transfer (FRET) analysis. For this analysis, the DNA sequence encoding for the SNAP Tag (plasmid purchased from Cisbio) was amplified by PCR and ligated into an expression vector, containing the full length human CEA sequence. The resulting fusion protein was comprised of full-length CEA with an N-terminal SNAP tag. HEK293 cells were transfected with 10 μg DNA using Lipofectamine 2000 as transfection reagent. After an incubation time of 20 h, cells were washed with PBS and incubated for 1 h at 37° C. in LabMed buffer (Cisbio) containing 100 nM SNAP-Lumi4Tb (Cibsio), leading to specific labeling of the SNAP Tag. Subsequently, cells were washed 4 times with LabMed buffer to remove unbound dye. […] Cells were then stored frozen at −80° C. for up to 6 months. Binding was measured by adding CEA-specific aVH binders at a concentration ranging from 0.005 up to 100 nM to labeled cells (100 cells per well) followed by addition of d2-labeled anti-his tag antibody (Cisbio, final concentration was 200 nM per well) as acceptor molecule for the FRET. […] The ratio of acceptor to donor emission was calculated and the ratio of the background control (cells only incubated with anti-his tag antibody) subtracted. Curves were analysed in GraphPad Prism5 (FIG. 9) and KDs calculated (Table 26).

The target in assay [4] is T3, murine FAP avi his, biotinylated (murine, UniProt P97321 27-761, biotin on the avi-tag).
T3 construct: also called muFAP; mu FAP
In words: SPR, purified aVH, FAP immobilised.

Assay [5] concerns the target T3, murine FAP avi his, biotinylated. In words: SPR, bacterial supernatant.
Procedure: (§1) Clones that were identified in the “mix-and-read assay” performed with the Mirrorball instrument were further analyzed by Surface Plasmon Resonance (SPR). The off-rate of selected aVH clones was measured using a ProteOn XPR36 instrument (Biorad) at 25° C. with biotinylated human and murine FAP antigen immobilized on NLC chips by neutravidin capture. Immobilization of recombinant antigens (ligand): Antigens were diluted with PBST (10 mM phosphate, 150 mM sodium chloride pH 7.4, 0.005% Tween 20) to 10 μg/ml, then injected at 30 μl/minute at varying contact times, to achieve immobilization levels of 400, 800 or 1600 response units (RU) in vertical orientation. Injection of analytes: Injection direction was changed to horizontal orientation and 5 individual aVH-containing supernatants that were diluted 1:3 with PBST were injected simultaneously at 60 μl/min along separate channels 1-5, with association times between 120 and 180s, and dissociation times of 600s. Diluted bacterial supernatant without aVH was injected along the sixth channel to provide an “in-line” blank for referencing. Dissociation rate constants (koff) were calculated using the “koff-rate” calculation in ProteOn Manager v3.1 software.
Assay [6] addresses T4, human FAP avi his, biotinylated (human, UniProt Q12884 27-759, biotin on the avi-tag).
T4 construct: also called huFAP
In words: SPR, bacterial supernatant.
Procedure: as §1

The target of assay [7] is T5, soluble human Lag3-IgG1-Fc with biotinylated C-terminal Avi-tag (human, biotin on the Avi-tag).
T5 construct: Lag3 ECD, IEGRMD linker, IgG1 Fc, Avi-tag; also called LAG3-Fc-avi; biotinylated LAG3-Fc
The assay can be described thus: SPR, LAG3-Fc immobilised.

Assay [8] concerns the target T5, soluble human Lag3-IgG1-Fc with …. The assay can be described thus: ELISA, supernatant on biotinylated antigen.
The target in assay [9] is T4, human FAP avi his, biotinylated. The assay can be described thus: SPR, purified aVH, FAP immobilised.

T5 sequence (chain, as listed by the source limits assumed): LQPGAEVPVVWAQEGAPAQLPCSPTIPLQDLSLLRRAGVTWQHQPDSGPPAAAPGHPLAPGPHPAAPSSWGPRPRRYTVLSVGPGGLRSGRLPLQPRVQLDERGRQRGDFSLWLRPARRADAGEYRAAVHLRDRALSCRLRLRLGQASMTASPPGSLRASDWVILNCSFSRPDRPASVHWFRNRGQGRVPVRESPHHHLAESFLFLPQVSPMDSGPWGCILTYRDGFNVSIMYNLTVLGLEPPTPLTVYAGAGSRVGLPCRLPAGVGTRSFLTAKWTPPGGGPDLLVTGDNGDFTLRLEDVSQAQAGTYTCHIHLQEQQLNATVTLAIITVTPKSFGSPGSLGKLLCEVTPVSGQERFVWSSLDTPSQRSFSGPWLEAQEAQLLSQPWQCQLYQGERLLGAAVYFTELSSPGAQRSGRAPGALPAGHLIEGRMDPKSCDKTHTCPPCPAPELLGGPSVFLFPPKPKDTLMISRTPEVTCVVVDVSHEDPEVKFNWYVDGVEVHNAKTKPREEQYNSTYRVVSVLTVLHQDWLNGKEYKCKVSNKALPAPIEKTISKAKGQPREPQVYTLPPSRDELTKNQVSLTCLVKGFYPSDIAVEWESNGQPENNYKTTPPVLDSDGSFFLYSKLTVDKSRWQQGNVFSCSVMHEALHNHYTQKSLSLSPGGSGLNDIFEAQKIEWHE

B1: anti-CEA aVH P118.089 (VHH)
VHH: EVQLVESGGGLVQPGGSLRLSCAASGFNIKDTCIGWVRRAPGKEEELVASICQYSGYTRYADSVKGRFTISADTSKNTAYLQMNSLRAEDTAVYYCAITSHHGDYNYWGQGTTVTVSS
For B1, the Kd amounted to 37.9 nM in assay [1] and 16.8 nM in assay [3]. Also, the koff in assay [2] stood at 0.0599 s⁻¹.

B2: anti-FAP aVH P049.004 (VHH)
VHH: EVQLVESGGGLVQPGGSLRLSCAASSFNIKDTYIGWVRRAPGKEEELVANIYCNYGYTRYADSVKGRFTISCDTSKNTAYLQMNSLRAEDTAVYYCATSHTRYHYKYWGQGTTVTVSS
In assay [4], B2 had a Kd of 23 nM, a koff of 0.00102 s⁻¹ and an on-rate constant (kon) of 51000 M⁻¹ s⁻¹. For the same molecule, the off-rate constant (koff) in assay [5] is 0.00207 s⁻¹. Besides, in assay [6], the koff was found to be 0.00508 s⁻¹.

B3: LAG3 P10D1 aVH (VHH)
VHH: EVQLVESGGGLVQPGGSLRLSCAASGFSIKDTCIAWVRRAPGKGTELVAEICEDIGYTRYADSVKGRFTISADTSKNTAYLQMNSLRAEDTAVYYCAAKEAGVGFDYWGQGTTVTVSS
notes: also called P110D1
Turning to B3, in [7], binding was put at a Kd of 27 nM, the koff worked out at 0.00383 s⁻¹ and the kon amounted to 144000 M⁻¹ s⁻¹.

B4: LAG3 9B4 aVH (VHH)
VHH: EVQLVESGGGLVQPGGSLRLSCAASGFNIKDTCIGWVRRAPGKGTELVAEICQDIGYTRYADSVKGRFTISADTSKNTAYLQMNSLRAEDTAVYYCAAVEVAEYFEYWGQGTTVTVSS
Turning to B4, in [7], binding was characterised by a dissociation constant (Kd) of 86 nM, the koff was found to be 0.00314 s⁻¹ and the kon came out at 36500 M⁻¹ s⁻¹.

B5: SEQ ID NO 95 (VHH)
VHH: EVQLVESGGGLVQPGGSLRLSCAASGFNIKYQCIGWVRRAPGKGTELVAEICSYDGYTRYADSVKGRFTISADTSKNTAYLQMNSLRAEDTAVYYCAAEESVEGFIYWGQGTTVTVSS
notes: also called LAG3-specific aVH
B5: the binding result in [8] is listed as “binds”.

B6: SEQ ID NO 83 (VHH)
VHH: EVQLVESGGGLVQPGGSLRLSCAASGFNIKDTCIGWVRRAPGKGTELVAEICEDIGYTRYADSVKGRFTISADTSKNTAYLQMNSLRAEDTAVYYCAANEHSVGFNYWGQGTTVTVSS
notes: also called LAG3-specific aVH
As for B6, in assay [8], the binding result was “binds”.

B7: SEQ ID NO 77 (VHH)
VHH: EVQLVESGGGLVQPGGSLRLSCAASGFNIKDTCIGWVRRAPGKGTELVAEICTDIGYTRYADSVKGRFTISADTSKNTAYLQMNSLRAEDTAVYYCAAGEGSSGFHYWGQGTTVTVSS
notes: also called LAG3-specific aVH
For the molecule B7, the binding result in [8] was “binds”.

B8: SEQ ID NO 97 (VHH)
VHH: EVQLVESGGGLVQPGGSLRLSCAASGFNIKDTCIGWVRRAPGKGTELVAEICDDIGYTRYADSVKGRFTISADTSKNTAYLQMNSLRAEDTAVYYCASQEHQWSFKYWGQGTTVTVSS
notes: also called LAG3-specific aVH
B8: the binding result in assay [8] was “binds”.

B9: SEQ ID NO 79 (VHH)
VHH: EVQLVESGGGLVQPGGSLRLSCAASGFNIKDTCIGWVRRAPGKGTELVAEICQDIGYTRYADSVKGRFTISADTSKNTAYLQMNSLRAEDTAVYYCAADESVDNFKYWGQGTTVTVSS
notes: also called LAG3-specific aVH
Turning to B9, the binding result in [8] is recorded as “binds”.

B10: SEQ ID NO 91 (VHH)
VHH: EVQLVESGGGLVQPGGSLRLSCAASGFNIKDTCIGWVRRAPGKGTELVAEICHDIGYTRYADSVKGRFTISADTSKNTAYLQMNSLRAEDTAVYYCAAEEHVASFEYWGQGTTVTVSS
notes: also called LAG3-specific aVH
For the molecule B10, in assay [8], the binding result is “binds”.

B11: SEQ ID NO 89 (VHH)
VHH: EVQLVESGGGLVQPGGSLRLSCAASGFNIKDTCIGWVRRAPGKGTELVAEICTDAGYTRYADSVKGRFTISADTSKNTAYLQMNSLRAEDTAVYYCAASESPSGFRYWGQGTTVTVSS
notes: also called LAG3-specific aVH
In the case of B11, the binding result in [8] is reported as “binds”.

B12: SEQ ID NO 85 (VHH)
VHH: EVQLVESGGGLVQPGGSLRLSCAASGFNIKDTCIGWVRRAPGKGTELVAEICQDIGYTRYADSVKGRFTISADTSKNTAYLQMNSLRAEDTAVYYCAGEEGATNFKYWGQGTTVTVSS
notes: also called LAG3-specific aVH
For the molecule B12, the binding result in [8] was “binds”.

B13: anti-FAP aVH P034.090 (VHH)
VHH: EVQLVESGGGLVQPGGSLRLSCAASGFNIKDTCIGWVRRAPGKEEELVANICSSYGHTRYADSVKGRFTISADTSKNTAYLQMNSLRAEDTAVYYCASSYTIYRYSYWGQGTTVTVSS
In assay [9], B13 displayed a Kd of 0.846 nM, an off-rate (koff) of 0.00046 s⁻¹ and a kon of 552000 M⁻¹ s⁻¹. In addition, the koff in assay [5] is 0.0255 s⁻¹. The molecule also yielded a koff in assay [6] of 0.00107 s⁻¹.

B14: anti-FAP aVH P047.001 (VHH)
VHH: EVQLVESGGGLVQPGGSLRLSCAASGFNIKDTCIGWVRRAPGKEEELVANICGKIGITRYADSVKGRFTISADTSKNTAYLQMNSLRAEDTAVYYCANSYTIVRYDYWGQGTTVTVSS
On to B14, for which the Kd in assay [4] was 24.5 nM; in [9] it was 1.15 nM. For the same molecule, the koff in assay [4] is 0.00784 s⁻¹; in [9], 0.00133 s⁻¹; in [5] it was 0.0157 s⁻¹; in assay [6] it was 0.00542 s⁻¹. In addition, the kon amounted to 320000 M⁻¹ s⁻¹ in [4] and 1.15e+06 M⁻¹ s⁻¹ in [9].

B15: anti-CEA aVH P123.065 (VHH)
VHH: EVQLVESGGGLVQPGGSLRLSCAASGFNIKDSSTYIGWVRRAPGKEEELVASISCSRGNTRYADSVKGRFTISCDTSKNTAYLQMNSLRAEDTAVYYCAHPRYTWYDYWGQGTTVTVSS
Take B15: the Kd is 89.1 nM in assay [1] and 190 nM in [3]. Besides, the koff in assay [2] stood at 0.0278 s⁻¹.

B16: LAG3 P11A2 aVH (VHH)
VHH: EVQLVESGGGLVQPGGSLRLSCAASSFNIKDTYIGWVRRAPGKGTELVAEIACHEGTTRYADSVKGRFTISCDTSKNTAYLQMNSLRAEDTAVYYCANTEYDDIFDYWGQGTTVTVSS
In assay [7], B16 displayed a Kd of 55 nM, a koff of 0.0138 s⁻¹ and an on-rate (kon) of 251000 M⁻¹ s⁻¹.

The values above are taken from US20260070940A1 (Hoffmann-La Roche, published 2026).
